Results on one molecule are retold here after publication PMC2955292 (Chemistry & biology, 2010).

The target of this test is E. coli ClpP (Escherichia coli, UniProt P0A6G7). The following applies: Figure S1A; SDS-PAGE.
E. coli ClpP, sequence (P0A6G7 15-207): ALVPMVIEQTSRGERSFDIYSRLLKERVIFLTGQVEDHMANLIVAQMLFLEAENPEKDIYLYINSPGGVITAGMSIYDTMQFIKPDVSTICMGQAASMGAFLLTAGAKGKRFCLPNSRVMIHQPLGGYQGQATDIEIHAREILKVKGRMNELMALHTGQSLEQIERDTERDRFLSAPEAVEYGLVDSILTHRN

B1: ClpA: AAA+ family ATPase that assembles into hexameric rings and binds ClpP (protein)
chain: MLNQELELSLNMAFARAREHRHEFMTVEHLLLALLSNPSAREALEACSVDLVALRQELEAFIEQTTPVLPASEEERDTQPTLSFQRVLQRAVFHVQSSGRNEVTGANVLVAIFSEQESQAAYLLRKHEVSRLDVVNFISHGTRKDEPTQSSDPGSQPNSEEQAGGEERMENFTTNLNQLARVGGIDPLIGREKELERAIQVLCRRRKNNPLLVGESGVGKTAIAEGLAWRIVQGDVPEVMADCTIYSLDIGSLLAGTKYRGDFEKRFKALLKQLEQDTNSILFIDEIHTIIGAGAASGGQVDAANLIKPLLSSGKIRVIGSTTYQEFSNIFEKDRALARRFQKIDITEPSIEETVQIINGLKPKYEAHHDVRYTAKAVRAAVELAVKYINDRHLPDKAIDVIDEAGARARLMPVSKRKKTVNVADIESVVARIARIPEKSVSQSDRDTLKNLGDRLKMLVFGQDKAIEALTEAIKMARAGLGHEHKPVGSFLFAGPTGVGKTEVTVQLSKALGIELLRFDMSEYMERHTVSRLIGAPPGYVGFDQGGLLTDAVIKHPHAVLLLDEIEKAHPDVFNILLQVMDNGTLTDNNGRKADFRNVVLVMTTNAGVRETERKSIGLIHQDNSTDAMEEIKKIFTPEFRNRLDNIIWFDHLSTDVIHQVVDKFIVELQVQLDQKGVSLEVSQEARNWLAEKGYDRAMGARPMARVIQDNLKKPLANELLFGSLVDGGQVTVALDKEKNELTYGFQSAQKHKAEAAH
Consider B1, for which the “pattern of β-casein degradation products (processivity)” value is on record as “promoted processive degradation of β-casein”.
